# Measurements taken from patent US6875851B1 (priority 1999, dated 2005).
# B1: PTP-A: prolyl-tripeptidyl peptidase A (SEQ ID NO:30) from P. gingivalis (protein, listed as Porphyromonas gingivalis)
# chain: MKKTIFQQLFLSVCALTVALPCSAQSPETSGKEFTLEQLMPGGKEFYNFYPEYVVGLQWMGDNYVFIEGDDLVFNKANGKSAQTTRFSAADLNALMPEGCKFQTTDAFPSFRTLDAGRGLVVLFTQGGLVGFDMLARKVTYLFDTNEETASLDFSPVGDRVAYVRNHNLYIARGGKLGEGMSRAIAVTIDGTETLVYGQAVHQREFGIEKGTFWSPKGSCLAFYRMDQSMVKPTPIVDYHPLEAESKPLYYPMAGTPSHHVTVGIYHLATGKTVYLQTGEPKEKFLTNLSWSPDENILYVAEVNRAQNECKVNAYDAETGRFVRTLFVETDKHYVEPLHPLTFLPGSNNQFIWQSRRDGWNHLYLYDTTGRLIRQVTKGEWEVTNFAGFDPKGTRLYFESTEASPLERHFYCIDIKGGKTKDLTPESGMHRTQLSPDGSAIIDIFQSPTVPRKVTVTNIGKGSHTLLEAKNPDTGYAMPEIRTGTIMAADGQTPLYYKLTMPLHFDPAKKYPVIVYVYGGPHAQLVTKTWRSSVGGWDIYMAQKGYAVFTVDSRGSANRGAAFEQVIHRRLGQTEMADQMCGVDFLKSQSWVDADRIGVHGWSYGGFMTTNLMLTHGDVFKVGVAGGPVIDWNRYEIMYGERYFDAPQENPEGYDAANLLKRAGDLKGRLMLIHGAIDPVVVWQHSLLFLDACVKARTYPDYYVYPSHEHNVMGPDRVHLYETITRYFTDHL
# B2: α2-macroglobulin: Human plasma inhibitor (protein)
# chain: SVSGKPQYMVLVPSLLHTETTEKGCVLLSYLNETVTVSASLESVRGNRSLFTDLEAENDVLHCVAFAVPKSSSNEEVMFLTVQVKGPTQEFKKRTTVMVKNEDSLVFVQTDKSIYKPGQTVKFRVVSMDENFHPLNELIPLVYIQDPKGNRIAQWQSFQLEGGLKQFSFPLSSEPFQGSYKVVVQKKSGGRTEHPFTVEEFVLPKFEVQVTVPKIITILEEEMNVSVCGLYTYGKPVPGHVTVSICRKYSDASDCHGEDSQAFCEKFSGQLNSHGCFYQQVKTKVFQLKRKEYEMKLHTEAQIQEEGTVVELTGRQSSEITRTITKLSFVKVDSHFRQGIPFFGQVRLVDGKGVPIPNKVIFIRGNEANYYSNATTDEHGLVQFSINTTNVMGTSLTVRVNYKDRSPCYGYQWVSEEHEEAHHTAYLVFSPSKSFVHLEPMSHELPCGHTQTVQAHYILNGGTLLGLKKLSFYYLIMAKGGIVRTGTHGLLVKQEDMKGHFSISIPVKSDIAPVARLLIYAVLPTGDVIGDSAKYDVENCLANKVDLSFSPSQSLPASHAHLRVTAAPQSVCALRAVDQSVLLMKPDAELSASSVYNLLPEKDLTGFPGPLNDQDNEDCINRHNVYINGITYTPVSSTNEKDMYSFLEDMGLKAFTNSKIRKPKMCPQLQQYEMHGPEGLRVGFYESDVMGRGHARLVHVEEPHTETVRKYFPETWIWDLVVVNSAGVAEVGVTVPDTITEWKAGAFCLSEDAGLGISSTASLRAFQPFFVELTMPYSVIRGEAFTLKATVLNYLPKCIRVSVQLEASPAFLAVPVEKEQAPHCICANGRQTVSWAVTPKSLGNVNFTVSAEALESQELCGTEVPSVPEHGRKDTVIKPLLVEPEGLEKETTFNSLLCPSGGEVSEELSLKLPPNVVEESARASVSVLGDILGSAMQNTQNLLQMPYGCGEQNMVLFAPNIYVLDYLNETQQLTPEIKSKAIGYLNTGYQRQLNYKHYDGSYSTFGERYGRNQGNTWLTAFVLKTFAQARAYIFIDEAHITQALIWLSQRQKDNGCFRSSGSLLNNAIKGGVEDEVTLSAYITIALLEIPLTVTHPVVRNALFCLESAWKTAQEGDHGSHVYTKALLAYAFALAGNQDKRKEVLKSLNEEAVKKDNSVHWERPQKPKAPVGHFYEPQAPSAEVEMTSYVLLAYLTAQPAPTSEDLTSATNIVKWITKQQNAQGGFSSTQDTVVALHALSKYGAATFTRTGKAAQVTIQSSGTFSSKFQVDNNNRLLLQQVSLPELPGEYSMKVTGEGCVYLQTSLKYNILPEKEEFPFALGVQTLPQTCDEPKAHTSFQISLSVSYTGSRSASNMAIVDVKMVSGFIPLKPTVKMLERSNHVSRTEVSSNHVLIYLDKVSNQTLSLFFTVLQDVPVRDLKPAIVKVYDYYETDEFAIAEYNAPCSKDLGNA
# B3: α1-antichymotrypsin: Human plasma inhibitor (protein)
# chain: HPNSPLDEENLTQENQDRGTHVDLGLASANVDFAFSLYKQLVLKAPDKNVIFSPLSISTALAFLSLGAHNTTLTEILKGLKFNLTETSEAEIHQSFQHLLRTLNQSSDELQLSMGNAMFVKEQLSLLDRFTEDAKRLYGSEAFATDFQDSAAAKKLINDYVKNGTRGKITDLIKDLDSQTMMVLVNYIFFKAKWEMPFDPQDTHQSRFYLSKKKWVMVPMMSLHHLTIPYFRDEELSCTVVELKYTGNASALFILPDQDKMEEVEAMLLPETLKRWRDSLEFREIGELYLPKFSISRDYNLNDILLQLGIEEAFTSKADLSGITGARNLAVSQVVHKAVLDVFEEGTEASAATAVKITLLSALVETRTIVRFNRPFLMIIVPTDTQNIFFMSKVTNPKQA
# B4: human cystatin C: protein substrate, provided by Dr. Magnus Abrahamson (protein)
# chain: SSPGKPPRLVGGPMDASVEEEGVRRALDFAVGEYNKASNDMYHSRALQVVRARKQIVAGVNYFLDVELGRTTCTKTQPNLDNCPFHDQPHLKRKAFCSFQIYAVPWQGTMTLSKSTCQDA
# Columns and labels:
# [1] = pH optimum and stability of PTP-A by amidolytic activity assay; type: physicochemical, P. gingivalis; details: 0.2 M HEPES
# Description: Enzyme Activity Assays—Routinely, the tripeptidyl peptidase amidolytic activity was measured with H-Ala-Phe-Pro-pNA (1 mM) in 0.2 M HEPES (N-2-hydroxyethylpeperazine,N′-2-ethansulfonic acid), pH 7.5 at 37° C. The concentration of enzyme was 0.1 nM to 1 nM. The assay was performed in a total volume of 0.2 ml on microplates, and the initial turnover rate was recorded at 405 nm using a microplate reader (Spectramax Molecular Devices, Sunnyvale, Calif.). In inhibition studies, the enzyme was first preincubated with inhibitor for 15 min at 37° C., substrate added, and residual activity recorded after 5 minutes to 30 minutes. H-Gly-Pro-pNA, Z-Ala-Pro-pNA, Z-Gly-Pro-pNA and H-Pro-pNA (1 mM final concentration) were assayed in the same manner.
# PTP-A activity was not affected by class specific synthetic inhibitors of cysteine or metalloproteinases (Table 2).
# [2] = system: PTP-A; type: biochemical, P. gingivalis
# [3] = system: PTP-A; type: biochemical, P. gingivalis; remark: listed apart in the source
Molecule,"Stability (time stable) ([1]; pH 7.6, 25° C.)","Stability (time stable) ([1]; pH 7.6, 37° C.)",Cleavage of protein by PTP-A (in words) [2],Effect on PTP-A amidolytic activity (in words) [3]
B1,at least 12 hours,at least 12 hours,–,–
B2,–,–,nor were they cleaved by PTP-A,did not affect the enzyme activity
B3,–,–,nor were they cleaved by PTP-A,did not affect the enzyme activity
B4,–,–,able to cleave a tripeptide,–
